Test results from the supplement of paper PMC10567573.

B1: ZNF263 (parent)
chain: FAHSSNLLRHQRIHTGERPYKCPE
B2: POMT2 (parent)
chain: VLRSRIRFIHLVTGCVLGSSGKVL

Variants of: B1
Experiment: protein stability index of a GFP-peptide fusion (GPS, HEK-293T) (PSI 1-6); higher = more stable
Conditions: c terminus: a fixed tail appended
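Also: lentivirally expressed fusions sorted by FACS into six bins by GFP to DsRed ratio, PSI derived from sequencing read proportions per bin multiplied by bin number.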

Variant | protein stability index
E24V | 1.56
E24H | 2.16
E24S | 1.84
E24L | 1.48
E24A | 1.89
E24G | 1.92
E24K | 2.46
E24M | 2.4
E24C | 1.56
E24Q | 2.33
E24R | 2.15
E24I | 1.7
E24Y | 2.28
E24W | 2.72
E24D | 2.44
E24P | 1.87
E24F | 1.59
E24T | 1.87
E24N | 1.88
P23W | 2.2
P23Y | 2.5

Variants of: B2
Experiment: as above
Conditions: c terminus: a fixed tail appended

Variant | protein stability index
I6E | 2.45
I6A | 1.64
I6D | 1.89
I6G | 2.81
I6F | 3.11
I6C | 4.38
I6K | 2.08
I6M | 2.88
I6T | 1.3
I6R | 1.78
I6H | 2.53
I6V | 3.12
I6Y | 3.93
I6L | 2.83
I6S | 1.83
I6P | 3.19
C15I | 1.67
C15E | 3.73
C15T | 1.4
C15R | 2.13
C15S | 3.04
C15N | 1.4
C15K | 3.31
C15A | 3.27
C15W | 2.95

Variant | protein stability index
C15P | 2.12
C15V | 4.18
C15F | 1.72
C15G | 3.07
C15M | 2.21
C15Y | 3.56
T13Q | 2.86
T13I | 2.31
T13V | 3.37
T13E | 2.08
T13F | 1.64
T13L | 3.22
T13K | 2.22
T13G | 1.51
T13Y | 3.54
T13D | 2.35
T13A | 2.01
T13H | 2.02
T13P | 4.82
I9Y | 3.49
I9F | 1.85
I9N | 2.64
I9K | 2.98
I9H | 4.48
I9W | 1.71

Variant | protein stability index
I9V | 1.5
I9S | 2.78
I9E | 2.34
I9M | 2.73
I9D | 1.63
I9R | 1.39
I9A | 4.43
I9L | 2.5
I9C | 1.74
I9Q | 2.87
I9G | 2.62
I9P | 1.42
F8G | 1.66
F8T | 2.35
F8A | 1.04
F8S | 1.57
F8N | 1.9
F8C | 3.6
F8P | 1.48
F8V | 2.68
F8Q | 1.67
F8D | 1.88
F8H | 2.79
F8R | 2.11
F8I | 3.13

Variant | protein stability index
F8K | 2.4
F8E | 1.76
F8W | 2.35
V1R | 1.96
V1A | 2.38
V1N | 3.04
V1M | 3.35
V1H | 2.8
V1L | 2.15
V1I | 2.76
V1W | 1.4
V1E | 2.61
V1G | 1.39
V1T | 3
V1P | 3.01
V1S | 3.21
V1Y | 2.51
V1D | 2.88
V1K | 2.88
L11E | 2.96
L11I | 2.01
L11D | 2.48
L11M | 1.68
L11T | 3.02
L11A | 2.33

Variant | protein stability index
L11P | 2.4
L11C | 3.74
L11N | 2.07
L11S | 3.27
L11Q | 2.87
L11G | 2.18
L11H | 2.02
L11R | 1.73
L11K | 2.13
V12H | 2.88
V12K | 3.48
V12E | 4.33
V12P | 2.25
V12C | 2.2
V12L | 2.13
V12T | 4.51
V12W | 1.94
V12F | 3.19
V12R | 2.65
V12G | 1.84
V12I | 2.81
V12Q | 1.05
V12S | 2.53
V12N | 3.83
V12M | 3.2

Variant | protein stability index
V16M | 3.73
V16I | 1.6
V16P | 4.02
V16N | 3.21
V16E | 2.4
V16Y | 3.11
V16R | 4.75
V16H | 3.17
V16G | 2.39
V16F | 1.63
V16D | 2.73
V16C | 2.73
V16L | 3.58
V16K | 3.78
V16W | 2.43
V16Q | 2.89
G14S | 3.28
G14R | 2.85
G14E | 1.96
G14D | 1.88
G14I | 3.23
G14K | 3.83
G14N | 2.11
G14W | 2.51
G14F | 3.15

Variant | protein stability index
G14L | 2.46
G14T | 2.33
G14M | 1.85
G14P | 2.97
G14V | 4.81
G14Y | 3.68
G14A | 4.85
R5F | 2.21
R5I | 2.1
R5N | 2.48
R5V | 2.4
R5Y | 2.99
R5G | 2.25
R5E | 2.83
R5P | 3.07
R5H | 2.82
R5M | 2.92
R5D | 2.67
R5L | 3.1
R5W | 2.14
R5T | 1.99
R5S | 1.06
R3V | 2.18
R3N | 2.43
R3S | 3.27

Variant | protein stability index
R3G | 3.29
R3P | 3.15
R3A | 1.24
R3F | 2.27
R3T | 2.65
R3I | 3.85
R3Y | 2.82
R3M | 3.2
R3E | 2.31
R3C | 2.14
R3L | 2.04
R3H | 2.39
H10C | 2.67
H10F | 3.38
H10G | 3.29
H10W | 2.63
H10L | 1.87
H10P | 3.05
H10D | 2.56
H10R | 2.5
H10N | 2.3
H10M | 1.99
H10Y | 2.84
H10K | 1.58
H10I | 3.35

Variant | protein stability index
H10A | 2.56
H10T | 2.92
L17A | 2.77
L17W | 3.74
L17D | 3.16
L17P | 1.74
L17G | 3.47
L17F | 1.62
L17V | 2.1
L17Y | 4.34
L17M | 2.42
L17S | 2.9
L17I | 2.28
L17H | 2.75
L17Q | 1.08
L17R | 2.35
G18C | 2.32
G18D | 1.67
G18V | 1.38
G18N | 4.13
G18M | 2.78
G18T | 2.14
G18R | 2.35
G18L | 2.69
G18I | 2.37

Variant | protein stability index
G18K | 2
G18S | 3.06
G18E | 2.45
G18A | 2.35
S4K | 3.75
S4V | 2.38
S4N | 4.14
S4T | 3.04
S4R | 2.66
S4E | 2.36
S4Y | 3.18
S4Q | 3.06
S4I | 2.53
S4D | 2.56
S4F | 2.29
S4L | 3.33
S4H | 2.09
R7N | 2.44
R7Y | 2.4
R7H | 3.62
R7A | 3.22
R7C | 2.94
R7W | 2.28
R7P | 2.44
R7T | 3

Variant | protein stability index
R7K | 3.58
R7L | 2.52
R7E | 2.94
R7G | 2.67
R7V | 2.05
R7D | 1.59
R7M | 3.48
G21F | 2.53
G21I | 1.98
G21L | 3.1
G21M | 3.38
G21E | 3.64
G21C | 3.88
G21H | 3.14
G21A | 2.99
G21D | 3.45
S19N | 2.73
S19V | 2.73
S19D | 3.66
S19K | 1.67
S19W | 2.66
S19T | 3.6
S19G | 1.99
S19M | 3.45
S19L | 1.78

Variant | protein stability index
S19A | 1.93
S19I | 2.59
S19R | 2.41
S19C | 2.51
S19P | 3.18
S19F | 2.63
L2C | 2.48
L2I | 2.71
L2S | 2.72
L2E | 1.06
L2D | 3.93
L2K | 3.28
L2A | 3.86
L2H | 2.81
L2M | 2.49
L2Q | 3.47
L2R | 3.38
L2P | 1.76
L2N | 2.4
L2F | 2.75
L2V | 2.83
S20M | 1.28
S20H | 2.64
S20Q | 3.58
S20V | 1.85

Variant | protein stability index
S20Y | 2.86
S20E | 1.99
S20F | 1.43
S20W | 2.12
S20A | 3.46
S20P | 1.69
S20T | 3.42
S20C | 3.22
S20R | 2.82
S20D | 2.12
S20L | 2.12
S20G | 2.08
S20I | 1.78
